# Laboratory results: publication PMC5897047
# Biological target: yeast 80S ribosome (S. cerevisiae (endogenous in yeast)) (UniProt P26321)
# Assay: fluorescence polarisation
# UniProt P26321, sequence (P26321 whole entry, looked up): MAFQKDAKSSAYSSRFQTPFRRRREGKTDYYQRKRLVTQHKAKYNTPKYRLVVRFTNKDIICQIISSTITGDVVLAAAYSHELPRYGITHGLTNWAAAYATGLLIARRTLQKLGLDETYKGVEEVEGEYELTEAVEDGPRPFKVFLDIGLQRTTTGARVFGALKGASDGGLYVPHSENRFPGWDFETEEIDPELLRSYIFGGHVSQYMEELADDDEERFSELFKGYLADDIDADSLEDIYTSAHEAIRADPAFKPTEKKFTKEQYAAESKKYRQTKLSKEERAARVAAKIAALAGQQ
row,Binder,Ki [nM]
1,"yeast non hypusine-containing eIF5A (eIF5A-Lys), wild type (natural protein) MSDEEHTFETADAGSSATYPMQCSALRKNGFVVIKSRPCKIVDMSTSKTGKHGHAKVHLVAIDIFTGKKLEDLSPSTHNMEVPVVKRNEYQLLDIDDGFLSLMNMDGDTKDDVKAPEGELGDSLQTAFDEGKDLMVTIISAMGEEAAISFKEAARTD",238
2,"hypusine-containing eIF5A from mutant tif51A-4 (K86A/R87A/E89A) (natural protein, hypusine at Lys51) MSDEEHTFETADAGSSATYPMQCSALRKNGFVVIKSRPCKIVDMSTSKTGKHGHAKVHLVAIDIFTGKKLEDLSPSTHNMEVPVVAANAYQLLDIDDGFLSLMNMDGDTKDDVKAPEGELGDSLQTAFDEGKDLMVTIISAMGEEAAISFKEAARTD",171
3,non hypusine-containing eIF5A from mutant tif51A-4 (K86A/R87A/E89A) (natural protein) MSDEEHTFETADAGSSATYPMQCSALRKNGFVVIKSRPCKIVDMSTSKTGKHGHAKVHLVAIDIFTGKKLEDLSPSTHNMEVPVVAANAYQLLDIDDGFLSLMNMDGDTKDDVKAPEGELGDSLQTAFDEGKDLMVTIISAMGEEAAISFKEAARTD,388
4,"yeast hypusine-containing eIF5A (eIF5A-Hyp), wild type (natural protein, hypusine at Lys51) MSDEEHTFETADAGSSATYPMQCSALRKNGFVVIKSRPCKIVDMSTSKTGKHGHAKVHLVAIDIFTGKKLEDLSPSTHNMEVPVVKRNEYQLLDIDDGFLSLMNMDGDTKDDVKAPEGELGDSLQTAFDEGKDLMVTIISAMGEEAAISFKEAARTD",8
